Assay results from paper PMC2572730, “Structural Basis for the Recognition of Histone H4 by the Histone-Chaperone RbAp46” (Structure(London, England:1993), 2008).

Target: histone H3 (Xenopus laevis, recombinant full length) (Xenopus laevis) (UniProt P84233)
Test: cross-linking; BS3 crosslinker in 1.1 M NaCl, 20 mM HEPES (pH 7.5), 10 mM DTT; ~10 uM RbAp46, H3/H4 or RbAp46/H3/H4; room temperature, 30 min; NuPAGE, Coomassie and blots with anti-H3 and anti-H4

stoichiometry N: 2
Substance: histone H3 (Xenopus laevis, recombinant full length) (from UniProt P84233 1-136) (natural protein)
